For orientation: koff means a measure of how fast the partners let go of each other.

From patent US20110123544A1 (published 2011) come the findings set out here.

Where two headings read alike, the source gives them in different places.

Assay [1] addresses T1, recombinant human interleukin 12 (p40/p35 heterodimer) (human, UniProt P29460 23-328; P29459 23-219).
T1 chain 1: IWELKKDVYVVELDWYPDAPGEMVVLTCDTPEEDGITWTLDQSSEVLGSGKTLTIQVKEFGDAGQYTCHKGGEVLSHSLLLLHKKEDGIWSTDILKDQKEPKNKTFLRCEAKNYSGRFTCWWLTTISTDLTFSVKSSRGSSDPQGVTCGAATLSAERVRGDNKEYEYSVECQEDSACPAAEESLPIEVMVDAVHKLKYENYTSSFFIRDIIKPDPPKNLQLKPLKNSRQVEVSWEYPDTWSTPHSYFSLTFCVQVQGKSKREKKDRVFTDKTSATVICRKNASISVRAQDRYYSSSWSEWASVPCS
T1 chain 2: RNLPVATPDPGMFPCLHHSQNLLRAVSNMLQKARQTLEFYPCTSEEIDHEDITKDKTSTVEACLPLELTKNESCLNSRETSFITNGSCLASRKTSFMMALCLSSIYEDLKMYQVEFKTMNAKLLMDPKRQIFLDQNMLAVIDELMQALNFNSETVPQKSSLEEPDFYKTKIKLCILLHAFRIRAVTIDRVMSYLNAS
Kind of assay: BIAcore. A general note: In SPR one partner is held on a chip, and binding of the other changes the refractive index at the surface.

The target in assay [2] is T1, recombinant human interleukin 12 …. Kind of assay: BIAcore.

B1: Y61 H96 M (peptide)
chain: HMSHDN
In the case of B1, the koff in assay [1] turned out to be 0.00204 s⁻¹.

B2: Y61 H32 C (peptide)
chain: FTFSSCGMH
Consider B2, for which the koff in assay [2] is 0.00383 s⁻¹.

B3: Y61 H101 H (peptide)
chain: HGSHHN
B3: the dissociation rate constant (koff) in assay [1] worked out at 0.00327 s⁻¹.

B4: Y61 H32 A (peptide)
chain: FTFSSAGMH
On to B4, for which the dissociation rate constant (koff) in assay [2] turned out to be 0.00166 s⁻¹.

B5: Y61 H98 T (peptide)
chain: HGSTDN
Consider B5, for which, in assay [1], the koff is 0.000227 s⁻¹.

B6: Y61 H95 T (peptide)
chain: TGSHDN
Consider B6, for which the koff in assay [1] is 0.00202 s⁻¹.

B7: Y61 H98 I (peptide)
chain: HGSIDN
Turning to B7, the dissociation rate constant (koff) in assay [1] was determined as 0.000343 s⁻¹.

B8: Y61 H98 R (peptide)
chain: HGSRDN
As for B8, in assay [1], the koff turned out to be 0.00034 s⁻¹.

B9: Y61 H101 Y (peptide)
chain: HGSHYN
Take B9: in assay [1], the koff is 0.00465 s⁻¹.

B10: Y61 H96 P (peptide)
chain: HPSHDN
With B10, the koff in assay [1] was 0.00129 s⁻¹.

B11: Y61 H31 A (peptide)
chain: FTFSAYGMH
Regarding B11, the dissociation rate constant (koff) in assay [2] was found to be 0.000205 s⁻¹.

B12: Y61 H33 C (peptide)
chain: FTFSSYCMH
On to B12, for which, in assay [2], the koff worked out at 0.00286 s⁻¹.

B13: Y61 H97 F (peptide)
chain: HGFHDN
Turning to B13, in assay [1], the off-rate (koff) worked out at 0.0018 s⁻¹.

B14: Y61 H32 V (peptide)
chain: FTFSSVGMH
For B14, in assay [2], the off-rate (koff) came to 0.00134 s⁻¹.

B15: Y61 H96 I (peptide)
chain: HISHDN
With B15, the dissociation rate constant (koff) in assay [1] is 0.00208 s⁻¹.

B16: Y61 H96 T (peptide)
chain: HTSHDN
With B16, the koff in assay [1] came to 0.00186 s⁻¹.

B17: Y61 H31 C (peptide)
chain: FTFSCYGMH
As for B17, the koff in assay [2] came to 0.00012 s⁻¹.

B18: Y61 H96 D (peptide)
chain: HDSHDN
For the molecule B18, the koff in assay [1] is 0.00224 s⁻¹.

B19: Y61 H101 R (peptide)
chain: HGSHRN
In the case of B19, the off-rate constant (koff) in assay [1] turned out to be 0.0011 s⁻¹.

B20: Y61 H30 R (peptide)
chain: FTFRSYGMH
For B20, the dissociation rate constant (koff) in assay [2] is 0.000245 s⁻¹.

B21: Y61 H33 S (peptide)
chain: FTFSSYSMH
With B21, in assay [2], the dissociation rate constant (koff) was found to be 0.000399 s⁻¹.

B22: Y61 H98 L (peptide)
chain: HGSLDN
Consider B22, for which the koff in assay [1] is 0.000598 s⁻¹.

B23: Y61 H96 H (peptide)
chain: HHSHDN
On to B23, for which the koff in assay [1] worked out at 0.000237 s⁻¹.

B24: Y61 H98 V (peptide)
chain: HGSVDN
With B24, in assay [1], the koff was 0.000293 s⁻¹.

B25: Y61 H30 Y (peptide)
chain: FTFYSYGMH
For the molecule B25, in assay [2], the off-rate (koff) was determined as 0.000319 s⁻¹.

B26: Y61 H33 Y (peptide)
chain: FTFSSYYMH
Turning to B26, the off-rate (koff) in assay [2] amounted to 0.0025 s⁻¹.

B27: Y61 H97 T (peptide)
chain: HGTHDN
In the case of B27, in assay [1], the koff turned out to be 0.000588 s⁻¹.

B28: Y61 H97 I (peptide)
chain: HGIHDN
B28: the koff in assay [1] was 0.00208 s⁻¹.

B29: Y61 H96 L (peptide)
chain: HLSHDN
Turning to B29, the koff in assay [1] is 0.00261 s⁻¹.

B30: Y61 H97 R (peptide)
chain: HGRHDN
Take B30: the off-rate (koff) in assay [1] came out at 0.00224 s⁻¹.

B31: Y61 H95 A (peptide)
chain: AGSHDN
On to B31, for which, in assay [1], the koff amounted to 0.0015 s⁻¹.

B32: Y61 H97 G (peptide)
chain: HGGHDN
B32: the dissociation rate constant (koff) in assay [1] amounted to 0.00229 s⁻¹.

B33: Y61 H96 C (peptide)
chain: HCSHDN
Take B33: the koff in assay [1] was determined as 0.000242 s⁻¹.

B34: Y61 H31 H (peptide)
chain: FTFSHYGMH
On to B34, for which, in assay [2], the koff turned out to be 0.000309 s⁻¹.

B35: Y61 H95 P (peptide)
chain: PGSHDN
Turning to B35, in assay [1], the dissociation rate constant (koff) is 0.00471 s⁻¹.

B36: Y61 H32 E (peptide)
chain: FTFSSEGMH
As to B36, in assay [2], the koff was found to be 0.00229 s⁻¹.

B37: Y61 H97 Y (peptide)
chain: HGYHDN
B37: the dissociation rate constant (koff) in assay [1] is 0.00273 s⁻¹.

B38: Y61 H30 E (peptide)
chain: FTFESYGMH
With B38, in assay [2], the koff is 0.000228 s⁻¹.

B39: Y61 H95 S (peptide)
chain: SGSHDN
Consider B39, for which, in assay [1], the off-rate constant (koff) came to 0.00193 s⁻¹.

B40: Y61 H32 S (peptide)
chain: FTFSSSGMH
With B40, in assay [2], the koff was determined as 0.00158 s⁻¹.

B41: Y61 H30 N (peptide)
chain: FTFNSYGMH
On to B41, for which, in assay [2], the dissociation rate constant (koff) came to 0.000301 s⁻¹.

B42: Y61 H31 Q (peptide)
chain: FTFSQYGMH
B42: the koff in assay [2] came to 0.000152 s⁻¹.

B43: Y61 H95 K (peptide)
chain: KGSHDN
In the case of B43, the koff in assay [1] is 0.00228 s⁻¹.

B44: Y61 H33 I (peptide)
chain: FTFSSYIMH
Turning to B44, the off-rate (koff) in assay [2] is 0.0025 s⁻¹.

B45: Y61 H32 L (peptide)
chain: FTFSSLGMH
Turning to B45, the koff in assay [2] came to 0.00226 s⁻¹.

B46: Y61 H96 R (peptide)
chain: HRSHDN
Take B46: the koff in assay [1] was 0.000962 s⁻¹.

B47: Y61 H31 R (peptide)
chain: FTFSRYGMH
Consider B47, for which the dissociation rate constant (koff) in assay [2] worked out at 0.000664 s⁻¹.

B48: Y61 H97 H (peptide)
chain: HGHHDN
Regarding B48, the koff in assay [1] was determined as 0.00191 s⁻¹.

B49: Y61 H33 E (peptide)
chain: FTFSSYEMH
In the case of B49, in assay [2], the off-rate (koff) came to 0.00189 s⁻¹.

B50: Y61 H33 M (peptide)
chain: FTFSSYMMH
Consider B50, for which the dissociation rate constant (koff) in assay [2] was determined as 0.000215 s⁻¹.

B51: Y61 H98 A (peptide)
chain: HGSADN
As for B51, the koff in assay [1] worked out at 0.000673 s⁻¹.

B52: Y61 H97 D (peptide)
chain: HGDHDN
As for B52, the koff in assay [1] turned out to be 0.00202 s⁻¹.

B53: Y61 H30 H (peptide)
chain: FTFHSYGMH
Take B53: in assay [2], the koff was found to be 0.000296 s⁻¹.

B54: Y61 H95 F (peptide)
chain: FGSHDN
Take B54: the koff in assay [1] was 0.00514 s⁻¹.

B55: Y61 H96 V (peptide)
chain: HVSHDN
B55: the koff in assay [1] came out at 0.000382 s⁻¹.

B56: Y61 H33 V (peptide)
chain: FTFSSYVMH
As to B56, the off-rate (koff) in assay [2] was found to be 0.00191 s⁻¹.

B57: Y61 H97 A (peptide)
chain: HGAHDN
On to B57, for which the koff in assay [1] turned out to be 0.00143 s⁻¹.

B58: Y61 H101 S (peptide)
chain: HGSHSN
Consider B58, for which the off-rate constant (koff) in assay [1] was 0.000449 s⁻¹.

B59: Y61 H97 P (peptide)
chain: HGPHDN
For the molecule B59, the koff in assay [1] came to 0.003 s⁻¹.

B60: Y61 H95 E (peptide)
chain: EGSHDN
As to B60, the koff in assay [1] was found to be 0.00231 s⁻¹.

B61: Y61 H95 L (peptide)
chain: LGSHDN
Take B61: in assay [1], the koff was 0.00147 s⁻¹.

B62: Y61 H98 F (peptide)
chain: HGSFDN
B62: the koff in assay [1] worked out at 0.000688 s⁻¹.

B63: Y61 H96 W (peptide)
chain: HWSHDN
With B63, the dissociation rate constant (koff) in assay [1] was 0.00197 s⁻¹.

B64: Y61 H97 N (peptide)
chain: HGNHDN
Take B64: the dissociation rate constant (koff) in assay [1] was determined as 0.00221 s⁻¹.

B65: Y61 H31 E (peptide)
chain: FTFSEYGMH
As for B65, the koff in assay [2] came to 0.000219 s⁻¹.

B66: Y61 H31 T (peptide)
chain: FTFSTYGMH
On to B66, for which the koff in assay [2] is 0.000716 s⁻¹.

B67: Y61 H95 Q (peptide)
chain: QGSHDN
For the molecule B67, in assay [1], the dissociation rate constant (koff) was 0.000859 s⁻¹.
